Numbering of substitutions follows the chain as printed. Read-outs that look alike come from different tables or passages of the source.
B1: 1A4Y EA344A (protein, UniProt P13489 2-461, looked up, variant E344A)
Ribonuclease inhibitor: SLDIQSLDIQCEELSDARWAELLPLLQQCQVVRLDDCGLTEARCKDISSALRVNPALAELNLRSNELGDVGVHCVLQGLQTPSCKIQKLSLQNCCLTGAGCGVLSSTLRTLPTLQELHLSDNLLGDAGLQLLCEGLLDPQCRLEKLQLEYCSLSAASCEPLASVLRAKPDFKELTVSNNDINEAGVRVLCQGLKDSPCQLEALKLESCGVTSDNCRDLCGIVASKASLRELALGSNKLGDVGMAELCPGLLHPSSRLRTLWIWECGITAKGCGDLCRVLRAKESLKELSLAGNELGDEGARLLCETLLEPGCQLESLWVKSCSFTAACCSHFSSVLAQNRFLLALQISNNRLEDAGVRELCQGLGQPGSVLRVLWLADCDVSDSSCSSLAATLLANHSLRELDLSNNCLGDAGILQLVESVRQPGCLLEQLVLYDIYWSEEMEDRLQALEKDKPSLRVIS
B2: 1A4Y DA435A (protein, UniProt P13489 2-461, looked up, variant D435A)
Ribonuclease inhibitor: B1 Ribonuclease inhibitor with A344E, D435A
B3: 1A4Y EA401A (protein, UniProt P13489 2-461, looked up, variant E401A)
Ribonuclease inhibitor: B1 Ribonuclease inhibitor with A344E, E401A
B4: 1A4Y SA289A (protein, UniProt P13489 2-461, looked up, variant S289A)
Ribonuclease inhibitor: B1 Ribonuclease inhibitor with S289A, A344E
B5: 1AHW TC197A (protein, UniProt P13726 33-295, looked up, variant T197A)
Tissue factor: SGTTNTVAAYNLTWKSTNFKTILEWEPKPVNQVYTVQISTKSGDWKSKCFYTTDTECDLTDEIVKDVKQTYLARVFSYPAGNVESTGSAGEPLYENSPEFTPYLETNLGQPTIQSFEQVGTKVNVTVEDERTLVRRNNTFLSLRDVFGKDLIYTLYYWKSSSSGKKTAKTNTNEFLIDVDKGENYCFSVQAVIPSRAVNRKSTDSPVECMGQEKGEFREIFYIIGAVVFVVIILVIILAISLHKCRKAGVGQSWKENSPLNVS
B6: 1DAN ST47A (protein, UniProt P13726 33-295, looked up, variant S47A)
Tissue factor: B5 Tissue factor with S47A, A197T
B7: 1DAN TT60A (protein, UniProt P13726 33-295, looked up, variant T60A)
Tissue factor: B5 Tissue factor with T60A, A197T
B8: 1AHW TC167A (protein, UniProt P13726 33-251, looked up, variant T167A)
extracellular domain: SGTTNTVAAYNLTWKSTNFKTILEWEPKPVNQVYTVQISTKSGDWKSKCFYTTDTECDLTDEIVKDVKQTYLARVFSYPAGNVESTGSAGEPLYENSPEFTPYLETNLGQPTIQSFEQVGTKVNVTVEDERTLVRRNNTFLSLRDVFGKDLIYTLYYWKSSSSGKKAAKTNTNEFLIDVDKGENYCFSVQAVIPSRTVNRKSTDSPVECMGQEKGEFRE
modifications: extracellular domain
B9: 1DAN ST16A (protein, UniProt P13726 33-251, looked up, variant S16A)
extracellular domain: B8 extracellular domain with S16A, A167T
modifications: extracellular domain
B10: 1DAN NU107A (protein, UniProt P13726 33-251, looked up, variant N107A)
extracellular domain: B8 extracellular domain with N107A, A167T
modifications: extracellular domain
B11: 1DAN TT17A (protein, UniProt P13726 33-251, looked up, variant T17A)
extracellular domain: B8 extracellular domain with T17A, A167T
modifications: extracellular domain
B12: 1DAN TT21A (protein, UniProt P13726 33-251, looked up, variant T21A)
extracellular domain: B8 extracellular domain with T21A, A167T
modifications: extracellular domain
B13: 1DAN QU110A (protein, UniProt P13726 33-251, looked up, variant Q110A)
extracellular domain: B8 extracellular domain with Q110A, A167T
modifications: extracellular domain
B14: 1AHW NC199A (protein, UniProt P13726 33-251, looked up, variant N199A)
extracellular domain: B8 extracellular domain with A167T, N199A
modifications: extracellular domain
B15: 1DAN TT52A (protein, UniProt P13726 33-251, looked up, variant T52A)
extracellular domain: B8 extracellular domain with T52A, A167T
modifications: extracellular domain
B16: 1DAN ST42A (protein, UniProt P13726 33-251, looked up, variant S42A)
extracellular domain: B8 extracellular domain with S42A, A167T
modifications: extracellular domain
B17: 1DAN NT18A (protein, UniProt P13726 33-251, looked up, variant N18A)
extracellular domain: B8 extracellular domain with N18A, A167T
modifications: extracellular domain

Assays:
[1] = system: PPIs of the SKEMPI data set (by PDBID); conditions: single mutation to alanine, ref SKEMPI, cited from earlier work; for sk_ddG_kJ (SKEMPI experimental ΔΔG, mutation to alanine): PPI given by PDBID, sheet sortedByGroup, r_group DERKH; for sk_ddG_kJ (SKEMPI experimental ΔΔG): complex given by PDBID
[2] = system: PPIs of the SKEMPI data set (by PDBID); test: SKEMPI experimental ΔΔG, single mutations to alanine; assay type: binding; conditions: for sk_class (class of the SKEMPI experimental ΔΔG): class by ΔΔG threshold 4.184 kJ/mol, ref SKEMPI; for sk_class: class of the SKEMPI experimental ΔΔG

Molecule	sk_ddG_kJ (SKEMPI experimental ΔΔG, mutation to alanine) [1]	sk_class (class of the SKEMPI experimental ΔΔG) [2]	sk_ddG_kJ (SKEMPI experimental ΔΔG) ([1]; mutation by mut_pdb)	sk_class [2]	sk_ddG_kJ (SKEMPI experimental ΔΔG) ([1]; residue group SQNT)
B1	0.67 kJ	Neutral (neutral (little effect) 4.184 kJ/mol < ΔΔG > −4.184 kJ/mol)			
B2	14.56 kJ	Positive (positive (a hot residue) ΔΔG ≥ 4.184 kJ/mol)			
B3	3.60 kJ	Neutral (neutral (little effect) 4.184 kJ/mol < ΔΔG > −4.184 kJ/mol)			
B4			0.13 kJ	Neutral (neutral (little effect) 4.184 kJ/mol < ΔΔG > −4.184 kJ/mol)	
B5				Positive (positive (a hot residue) ΔΔG ≥ 4.184 kJ/mol)	5.65 kJ
B6				Neutral (neutral (little effect) 4.184 kJ/mol < ΔΔG > −4.184 kJ/mol)	-0.54 kJ
B7				Positive (positive (a hot residue) ΔΔG ≥ 4.184 kJ/mol)	9.67 kJ
B8				Neutral (neutral (little effect) 4.184 kJ/mol < ΔΔG > −4.184 kJ/mol)	-0.29 kJ
B9				Neutral (neutral (little effect) 4.184 kJ/mol < ΔΔG > −4.184 kJ/mol)	-0.54 kJ
B10				Neutral (neutral (little effect) 4.184 kJ/mol < ΔΔG > −4.184 kJ/mol)	0.00 kJ
B11				Neutral (neutral (little effect) 4.184 kJ/mol < ΔΔG > −4.184 kJ/mol)	0.50 kJ
B12				Neutral (neutral (little effect) 4.184 kJ/mol < ΔΔG > −4.184 kJ/mol)	-0.67 kJ
B13				Positive (positive (a hot residue) ΔΔG ≥ 4.184 kJ/mol)	5.44 kJ
B14				Positive (positive (a hot residue) ΔΔG ≥ 4.184 kJ/mol)	4.52 kJ
B15				Neutral (neutral (little effect) 4.184 kJ/mol < ΔΔG > −4.184 kJ/mol)	1.67 kJ
B16				Neutral (neutral (little effect) 4.184 kJ/mol < ΔΔG > −4.184 kJ/mol)	-0.29 kJ
B17				Neutral (neutral (little effect) 4.184 kJ/mol < ΔΔG > −4.184 kJ/mol)	0.75 kJ

— article PMC6804253, “Predicting and Experimentally Validating Hot-Spot Residues at Protein–Protein Interfaces” (ACS Chemical Biology, 2019)
